15 substances from US6274703 can be followed below.

Read-outs that look alike come from different tables or passages of the source. Where only a bound is given, the exact number is not on record here.

Assay [1] concerns the target TIMP-2 (Homo sapiens (Human)) (UniProt P16035). Briefly: competition with 125I-labelled WT GelA-CTD on TIMP-2 coated wells; against WT.
The target is the same in assay [2]. Briefly: competition with 125I-labelled WT GelA-CTD on TIMP-2 coated wells; mutant Ki over WT Kd.
For assay [3] the target is unchanged. Briefly: self competition with 125I-labelled WT GelA-CTD on TIMP-2 coated wells.
Assay [4] has the same target. Description: competition with 125I-labelled WT GelA-CTD on TIMP-2 coated wells; against WT. This is another data set of the same source.

Consider “FLAG GelA-CTD double mutant #46 Glu^641→Ala + Gly^651→Arg (from UniProt P08253)”, for which, in assay [1], the fold loss in TIMP-2 binding is more than 100 fold. The Ki/Kd in assay [2] was more than 500. As for “FLAG GelA-CTD fusion protein, wild type (from UniProt P08253)”, the Ki/Kd in assay [3] amounted to 1. Regarding “FLAG GelA-CTD mutant #28 Asp^569→Ala (from UniProt P08253)”, the Ki/Kd in assay [2] amounted to 8. The substance “FLAG GelA-CTD mutant #31 Lys^579→Ala (from UniProt P08253)” yielded a Ki/Kd in assay [2] of 6. As to “FLAG GelA-CTD mutant #39 Lys^604→Ala (from UniProt P08253)”, the Ki/Kd in assay [2] came to 25. Substance “FLAG GelA-CTD mutant #41 Asp^615→Ala (from UniProt P08253)” yielded a fold loss in TIMP-2 binding in assay [1] of more than 100 fold. Moreover, the Ki/Kd in assay [2] was found to be 300.

The substance “FLAG GelA-CTD mutant #229 Lys^576→Ala (from UniProt P08253)” registered a fold loss in TIMP-2 binding in assay [4] of more than 100 fold. This substance also returned a Ki/Kd in assay [2] of more than 500.

With “FLAG GelA-CTD mutant #234 Arg^590→Ala (from UniProt P08253)”, the fold loss in TIMP-2 binding in assay [4] and in assay [1] was more than 100 fold in each case. Moreover, in assay [2], the Ki/Kd is more than 500. Turning to “FLAG GelA-CTD mutant #247 Lys^646→Ala (from UniProt P08253)”, in assay [4], the fold loss in TIMP-2 binding was more than 100 fold. In addition, the Ki/Kd in assay [2] was more than 500. In assay [2], “FLAG GelA-CTD mutant #250 Trp^574→Ala (from UniProt P08253)” had a Ki/Kd of more than 500. On the same count and under the same terms, as for “FLAG GelA-CTD mutant #252 Tyr^636→Ala (from UniProt P08253)”, the figure is 10.

In assay [2], “FLAG GelA-CTD mutant #255 Phe^650→Ala (from UniProt P08253)” came in with a Ki/Kd of 8. In assay [2], “FLAG GelA-CTD mutant #257 Gly^651→Ala (from UniProt P08253)” gave a Ki/Kd of 3. As to “FLAG GelA-CTD mutant #258 Asp^656→Ala (from UniProt P08253)”, the Ki/Kd in assay [2] turned out to be 10. Same read-out and setting: in the case of “FLAG GelA-CTD mutant #259 Asn^611→Ala (from UniProt P08253)” it was 3.
